Test results as given in the RNAGym collection of RNA variant scans (doi:10.1073/pnas.2313332121).

B1: TPR t1 (parent)
chain: GACCAAUCUGCCCUCAGAGCUCGAGAACAUCUUCGGAUGCAGAGGAGGCAGGCUUCGGUGGCGCGAUAGCGCCAACGUCCUCAACCUCCAAUGCAUCCCACCACAUGAUGAUGCCUGAAGAGCCUUGGUUUUUUG

Variants of: B1
Experiment: polymerase ribozyme fitness, log enrichment relative to wild type (log ratio); higher = more active; in vitro selection for triplet polymerase activity
How it was run: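 A single round of triplicate in vitro selection, including frozen incubation at −7 °C, was applied to PCR-built, transcribed mutant libraries of each subunit of a heterodimeric triplet polymerase ribozyme. Illumina sequencing of input and output libraries retained genotypes with ≥10 input reads and ≥1 read per output. Fitness is the base-2 logarithm of genotype enrichment divided by wild-type enrichment, from inverse-variance-weighted replicate averages.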

| Variant | polymerase ribozyme fitness (log ratio) |
| --- | --- |
| GACCAAUCUGCCCUCAGAGCUCGAGAACAUCUUCGGAUGCAGAGGAGGGAGGCUUCGGUGGCGCGAUAGCGCCAACGUCCUCAAUCUCCAAUGCAUCCCACCACAUGAUGAUGCCUCAAGAGCCUUGGUUUUUUG | -3.67 |
| GACCAAUCUGCCCUCAGAGCUCGAGAACAUCUUCGGAUGCAGAGGAGGGAGGCUUAGGUGGCGCGAUAGCACCAACGUCCUCAACCUCCAAUCCAUCCCACCACAUGAUGAUGCCUGAAGAGCCUUGGUUUUUUG | -6.41 |
| GACCAAUCUGCCCUCAGAGCUCGAGAACAUCUUCGGAUGCAGAGGAGGGAGGCUUCGGUGGCGCGAUAGCGCGAACGUCCUCAACCUCCAAUGCAUCCCACCACAUGAUGAUGCCUGAAGAGCCUUGGUUUUUUG | -1.7 |
| GACCAAUCUGCCCUCAGAGCUCGAGAACAUCUUCGGAUGCAGAGGAGGGAGGCUUCGGUGGCGCGAUAGCGCCAACGUCCUCAACCUCAAAUGCAUCCCACCACAUGAUGCUGCCUGCAGAGCCUUGGAUUUUGG | -5.22 |
| GACCAAUCUGCCCUCAGAGCUCGAGAACAUCUUCGGAUGCAGAGGAGGGAGGCUUCGGUGGCGGGAUAGCGCCAACGUCCUCAACCUCCAAUGCAUCCCACCACAUGAUGAUGCCUGAAUAGCAUUGGUUUUUUU | -7.53 |
| GACCAAUCUGCCCUCAGAGCUCGAGAACAUCUUCGGAUGCAGAGGAGGGAGGCUUCGGUGGCGCGAUAGCGCAAACGUCCUCAAUCUCAAAUGCAUCCCACCACAUGAUGAUGCCUGAAGAGCCUUGGUUUUUUG | -2.43 |
| GACCAAUCUGCCCUCAGAGCUCGAGAACAUCUUCGGAUGCAGAGGAGGGAGGCUUCGGUGGCGCGAUAGCGCCAACGUCCUCAACCUCCAAUGCAUCCCACCUCAUGAUGAUGCCUGAAGAGCUUUGGUUUUUUG | -4.18 |
| GACCAAUCUGCCCUCAGAGCUCGAGAACAUCUUCGGAUGCAGAGGAGGGAGGCUUCGGUGGUGCGAUAGCGCCAACGUCCUCAACCUACAAUGCCUCCCACCACAUGAUGAUGCCUGAAGAGCCUUGGUGUUUUG | -4.6 |
| GACCAAUCUGCCCUCAGAGCUCGAGAACAUCUUCGGAUGCAGAGGAGGGAGGCUUCGGUGGCGCGAUAGCGCCAACGUCCUCAACCUCCUAUGCAUCCCACCACAUGAUGAUUCCUGAAGAGCCUUGGUUUUUUG | -3.57 |
| GACCAAUCUGCCCUCAGAGCUCGAGAACAUCUUCGGAUGCAGAGGAGGGAGGCUUCGGUGGCGCGAUAGCGCCAACGUCCUCAACCUCCUAUGCAUCCCACCACAUGAUGAUGCCUGAAGAGCCUUGGUUUUUUG | -2.58 |
| GACCAAUCUGCCCUCAGAGCUCGAGAACAUCUUCGGAUGCAGAGGAGGGAGGCUUCGGUGGCGCGAUAGCGACAACGUUCUCAACCUCCAAUUCAUCCCACCACAUGAUGAUGCCUGAAGAGCCUUGGUUUUUUG | -1.3 |
| GACCAAUCUGCCCUCAGAGCUCGAGAACAUCUUCGGAUGCAGAGGAGGGAGGCUUCGGUGGCGGGAUAGCGCCAACUUCCUCUACCUCCAAUGCAUCCCACCACAUGAUGAUGCCUGAAUAGCCUUGGUUUUUUG | -7.69 |
| GACCAAUCUGCCCUCAGAGCUCGAGAACAUCUUCGGAUGCAGAGGAGGGAGGCUUCGGUGGCGCGAUAGCGCCAACGUCCUCAACCUCCAAUGCAUCCCACCACAUGAUGAUGCCUGAUGAGCCUUGGUUUUUUG | -0.491 |
| GACCAAUCUGCCCUCAGAGCUCGAGAACAUCUUCGGAUGCAGAGGAGGGAGGCUUCGGUGGUGCGAUAGCGCCAACGUCCUCAACCUCCAAUGCAUCCCACCACAUGAUGAUUCCUGAAGAGCCUUGGUUUUUUG | -4.48 |
| GACCAAUCUGCCCUCAGAGCUCGAGAACAUCUUCGGAUGCAGAGGAGGGAGGCUUCGGUGGCGCGAUAGCGCCAACGUCCUCAAACUCCAAUGCAUCCCACCACAUGAUGAGGCCUGAAGGGCUUUGGUUUUUUG | -0.43 |
| GACCAAUCUGCCCUCAGAGCUCGAGAACAUCUUCGGAUGCAGAGGAGGGAGGCUUCGGUGGAGCGAUAGCGCCAACGUCCUCAACCUCCAAUGCAUCCCACCACAUGAUGAUGCCUGAAGAGCCUUGGUUUUUUG | -1.32 |
| GACCAAUCUGCCCUCAGAGCUCGAGAACAUCUUCGGAUGCAGAGGAGGGAGGCUUCGGUGGGGCGAUAGCGCCAGCGUUCUCAACCUCCAAUGCAUCCCACCACAUGAUGAUGCCUGAAGAGCCUUGGUUUUUUG | -3.47 |
| GACCAAUCUGCCCUCAGAGCUCGAGAACAUCUUCGGAUGCAGAGGAGGGAGGCUUCGGUGGCGCGAUAGCGCCAACGUCCUCAUCCUCCAAUGCAUCCCACCACAUGAUCAUGCCUGAAGAGCCUUGGUUUUUUG | -5.43 |
| GACCAAUCUGCCCUCAGAGCUCGAGAACAUCUUCGGAUGCAGAGGAGGGAGGCUUCGGUGGCGCGAUAGCGCCAACGUCCUCAACCUCCAUUGCAUCCCACCACAUGAUGAUGCCUGAAGAGCCUUGGUUUUUUG | -2.92 |
| GACCAAUCUGCCCUCAGAGCUCGAGAACAUCUUCGGAUGCAGAGGAGGGAGGCUUCGGUGGAGCGAUAGCGCCAACGUCCUCAACAUCCAAUGCAACCCACCACAUGAUGAUGCCUGAAGAGCCUUGGUUUUUUG | -3.84 |
| GACCAAUCUGCCCUCAGAGCUCGAGAACAUCUUCGGAUGCAGAGGAGGGAGGCUUCGGUGGCGCGAUGGCGCCAACGUCCUCAACCUCCAAUGCAUCCCACCACAUGAUGAUGCCUUAAGAGCCUUGGUUUUUUG | -5.87 |
